Here are results for one molecule from patent US20190185898A1.

In the assay the target is core-fucosylated RNase B (21) (bovine) (UniProt P61823). The experiment in a line: ELISA, glycoprotein coated, AAL-biotin in serial dilution. A general note: An ELISA detects its analyte on a solid surface through an enzyme-linked reagent.

For orientation: EC50 means the concentration giving half of the maximal effect. Read a high EC50 as a less potent agent.

Chain of core-fucosylated RNase B (21) (bovine) (P61823 27-150): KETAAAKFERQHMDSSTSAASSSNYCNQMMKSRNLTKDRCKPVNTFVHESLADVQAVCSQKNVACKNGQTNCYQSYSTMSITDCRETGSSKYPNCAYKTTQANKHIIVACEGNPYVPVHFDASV

B1: Aleuria aurantia lectin (AAL) (protein, UniProt P18891 2-313, looked up)
chain: PTEFLYTSKIAAISWAATGGRQQRVYFQDLNGKIREAQRGGDNPWTGGSSQNVIGEAKLFSPLAAVTWKSAQGIQIRVYCVNKDNILSEFVYDGSKWITGQLGSVGVKVGSNSKLAALQWGGSESAPPNIRVYYQKSNGSGSSIHEYVWSGKWTAGASFGSTVPGTGIGATAIGPGRLRIYYQATDNKIREHCWDSNSWYVGGFSASASAGVSIAAISWGSTPNIRVYWQKGREELYEAAYGGSWNTPGQIKDASRPTPSLPDTFIAANSSGNIDISVFFQASGVSLQQWQWISGKGWSIGAVVPTGTPAGW
modifications: biotin label (AAL-biotin), site not stated
Regarding B1, the EC50 came to 275 µM.
